Laboratory results reported in the nanobody polyreactivity screen of Harvey et al. (2022).

Test: yeast display, Sf9 membrane polyspecificity reagent, FACS + sequencing; frameworks hold sequencing errors
Summary of the method: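 Galactose induction of a Saccharomyces cerevisiae BJ5465 synthetic nanobody display library ran 36–48 hours. The cells were then stained for 1 hour at 4 °C with 10% biotinylated, detergent-solubilized Sf9 membrane reagent, pulled down on streptavidin microbeads and FACS-sorted into low and high (top ~1%) gates on expression and reagent-binding fluorescence. Labels for polyreactivity follow the gate of origin.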

Sequence | polyreactivity (PSR sort gate)
QVQLVESGGGLVQAGGSLRLSCAASGYIFGVYAMGWYRQAPGKERELVAAISIGGSTYYADSVKGPFTISRDNAKNTVYLQMNSLKPEDTAVYYCAARGWIRKTSSAYGYWGQGTQVTVSS | high polyreactivity
QVHLVESGGGLVQAGGSLRLSCAASGSIFSWNAMGWYRQAPGKERELVAAISKRGTSTYYADSVKGRFTISRDNAKNTVYLQMNSLKPEDTAVYYCAARAQSYPYLSFDYWGQGTQVTVSS | high polyreactivity
QVQLVESGGGLVQAGGSLRLSCAASGFIFGGYAMGWYRPAPGKERELVAAISSSGGSTYYADSVKGRFTISRDNAKNTVYLQMNSLKPEDTAVYYCAARIQSVSSGRWFDYWGQGTQVTVSS | high polyreactivity
QVQLVESGGGLVQAGGSLRLSCAASGFIFRTYAMGWYRQAPGKERELVAAISRGGGTTYYADSVKGRFTISRDNAKNTVYFQMNSLKPEDTAFYYCAAYSQYLKRDYWGQGTQVTVSS | high polyreactivity
QVQLVESGGGLVQAGGSLRLSCAASGFNFYTNVMGWYRPAPGKERELVAAINSGGSTNYADSVKGRFTISRDNAKNTVYLQMNSLKPEDTAVYYCAARVARISVPYDYWGQGTQVTVSS | low polyreactivity
QVQLVESGGGLVQAGGSLRLSCAASGSTFGVNAMGWYRQAPGKERELVAGISVDDSTTYYADSVKGRFTISRDNAKNTVYLQMNSLIPEDTAVYYCAAEREKTLYYLSRFDYWGQGTQVTVSS | low polyreactivity
QVQLVESGGGLVQAGGSLRLSCAASGFTFWRYAMGWYRQAPGKERELVAAISWRGSSTYYADSVKGRFTISRDNAKNTVYLQMNSLKPEDSAVYYCAARYITFNGYGYGYWGQGTQVTVSS | high polyreactivity
QVQLVESGGGLVQAGGSLRLSCAPSGSIFRWYAMGWYRQAPGKERELVAAITSGGSTYYADSVKGRFTISRDNAKNTVYVQMNSLKPEDTAVYYCNAAKLASHTYDYWGQGTQVTVSS | low polyreactivity
QVQLVESGGGLVQAGGSLRLSCAASVRIFLWYAMGWYRQAPGKERELVAAITKSAGTTYYADSVKGRFTISRDNAKNTVYLQMNSLKPEDTAVYYCGAYYWLYAHWRFGNYWGQGTQVTVSS | low polyreactivity
QVQLVESGGGLVQAGGSLRLSCAASGSTFSSYAMGWYRPAPGKERELVARITSGGSTYYADSVKGRFTISRDNAKNTVYLQMNSLKPEDTAVYYCAARGYYYRSRVSQFKYDYWGQGTQVTVSS | high polyreactivity
QVQLVESGGGLVQAGGSLRLSCAASGRIFRPYAMGWYRQAPGKERELVAAISVSGVITYYADSVKGRFTISRDNAKNTVYLQMISLKPEDTAVYYCATDYTPRRWGRLYDYWGQGTQVTVSS | low polyreactivity
QVQLVESGGGLVQAGGSLRLSCVASGRTFSRYAMGWYRQAPGKERELVAAISRRGGSTYYADSVKGRFTISRDNAKNTVYLQMNRLKPEDTAVNYCAAGYITCGSGNWVVTPYDYWGQGTQVTVSS | high polyreactivity
QVQLVESGGGLVQAGGSLRLSCAASGSTFQTYVMGWYRQAPGKERELVAAISSGGSTNYADSVKGRFTISRDNAKNTVYLQMISLKPEDTAVYYCAKRWPYFRRGKDGYWGQGTQVTVSS | low polyreactivity
QVQLVESGGGLVQAGGSLRLSCAPSGRIFPGYAMGWYRQAPGKERELVAAISTNGGRTYYADSVKGRFTISRDNAKNTVYLQMNSLKPEDTAVYYCNAARAVYTQKRFDSWGQGTQVTVSS | high polyreactivity
QVQLVESGGGLVQAGGSLRLSCAASGSILGSNAMGWYRQPPGKESEFVAAITTITGSTYYADSVKGRFTISRDNAKNTVYLEMNSLKPEDTAVYYCNADAHESTDYTLYFSGPYYYWGQGTQVTVSS | low polyreactivity
QVQLVESGGGLVQAGASLRLSCAGSGLIFTTYAMGWYRQAAGKERELVADINSDGSTYYADSVKGRFTISRDNAKNTVYLQMNSLKPEDTAVYYCAKDYVHQYGVYKVWANNYNYWGQGTQVTVSS | low polyreactivity

Sequence | polyreactivity (PSR sort gate)
QVQLVDSGGGLVQAGVRLRLSCAASGNIFSAYAMGWYRQAPGKERELVASIDWNGGRTYYADSVKGRFTISRDNAKNTVYLQMNSLKPEDTAVYYCNAGYSYRKYDYLGQGTQVTVSS | high polyreactivity
QDQLVESGGGLVQAGGSLRLSCAASGFTFGENSMGWYRQAPGKERELVAANRYSGGSTYYADSVKGRFTISRDNAKNTVYLQMNSLKPEDTAVYYCNADTYALGPAVIPGDEYWGQGTQVTVSS | low polyreactivity
QVQLVESGGGLVQAGGSLRLSCAASGSTFGTNDMGWYRQAPGKEREFVASIDWSGDSTNYADSVKGRFTISRDNAKNTVYLQMNSLKPEDTAVYYCAARVFPPSRHDYWGQGTQVTVSS | high polyreactivity
QVQLVESGGGLVKAGGSLRISCAASGSIFGPNGKGLYRQAPGKERELVSAISWNGGSTYYADSVKGRFTISRDNAKNTVYLQMNSLKPEDTAVYYCNAVQYYEFDYWGHGTQVTVSS | low polyreactivity
QVQLVESGGGLVQAGGSLRLSCAASGSPFRRYAMGWYRQAPGTERELVAAISWRGGSTRYADSVKGRFTLSRDNAKNTVYLQMNSLKPEDTAVYYCAALGSYGNPPSYNYWGQGTQVTVSS | high polyreactivity
QVQLVESGGGLVQAGGSLRLSCAASGFTFETYVMGWYRQAPGKERELVAAISRRGGSTYYADSVKGRFTISRDNAKNTVYLQMNSLKPEDTAVYYCGKDGGWSRLHYNYWGQGTQVTVSS | high polyreactivity
QVQLVESGGGLVQAGGSLRLSCAASGITFTWYAMGWYRQAPGKERELVAAISGGGSTYYVDSVKGRFTISRDNAKNTVYLQMNSLKPEDTAVYYCAARYSWTRRTMYYWGQGTQVTVSS | high polyreactivity
QVQLVESGGGLVQAGGSLRLSCAASGSILVGNPMGWYRQAPGTERELVAAISKSGSSTHYADSVKGRFTISRDNAKNTFYLQMNSLKPEDTAVYYCNAVGRVYRAKYDYWGQGTQVTVSS | high polyreactivity
QVQLVESGRGLVQAGGRLRLSCAASGFTFNRYTMGGYRQAPGKEREFVASITRSGGSTYYADSVKGRFTISRDNAKNTVYLQMNSLTPEDTAVYYCAPVYQYSSRYDHWGQGTQVTVSS | high polyreactivity
QVQLVESGGGLVQAGGSLRLSCAASGRTFQSNAMGWYRQAPGKERELVAAITNGGNTNYADSVKGRFTISRDNAKNTVYLQMNSLKPEDTAVYYCAADRLYVRYGYWGQGTQVTVSS | low polyreactivity
QVQLVESGGGLVQAGGSLRLSCAASGITFTGYAMGWYRQAPGKERELVAAITSGGGRTYYADSVKGRFTISRDNAKNTVYLQMNSLKPEDTAVYYCATRYVTIVGYDYWGQGTQVTVSS | high polyreactivity
QVQLVESGGGLVQAGGSLRLSCAASGFIFASNVMGWYRQAPGKERELVAAISWSGTRTYYADSVKGRFTISRDNAKNTVYLQMNSLKPEDTAVYYCAARRLYAGHQYDYWGQGTQVTVSS | high polyreactivity
QVQLVESGGGLVQAGGSLRLSCAASGSILTINAMGWYRQAPGKERELVARITISSGSTYYADSVKGRFTISRDNAKNTVYLQMNSLKPEDTAVYYCATDGRSNYYWGDYWGQGTQVTVSS | low polyreactivity
QVQLVESGGGLVQAGGTLRLSCAASGSTFTGNAMGWYRQAPGKERELVAAITIGGSRTYYADSVKGRFTISRDNAKNTVYLQMNSLKPEDTAVYYCAATSRGTDYWGQGTQVTVSS | high polyreactivity
QVQLVESGGGLVQAGGSLRLSCAASGSIFQYYAMGWYRQAAGKERELVAAISGSGGRTYYADSVKGRFTISRDNAKNTVYLQMNSLKPEDTAVYYCNTVWWKQYNYWGQGTQVTVSS | high polyreactivity
QVQLVESAGGLVQAGGSLRLSCAASGFIFRNYAMGWYRQEHGKERELVAAISRRGGSTYYADSVKGRFTISRDNAKNTVYLQMNSLKPEDTAVYYCAADYYYSSRIEYYYWGQGTQVTVSS | high polyreactivity
